US20210338724A1

Key:
[1] = biological target: IL-18/TF/IL-15:IL-12/IL-15RαSu protein complex (18t15-12s) (human); test: sandwich ELISA; the concentration is that of the titrated 18t15-12s; anti-human tissue factor capture, BAM 247 detection at a fixed concentration
[2] = biological target: IL-2Rα, IL-2Rβ and common γ chain on CTLL-2 cells; test: cell-based or functional assay
[3] = biological target: IL-2Rβ and common γ chain on 32Dβ cells; test: cell-based or functional assay
TGFβ1 (R&D systems) = TGFβ1 (R&D systems) (UniProt P01137); test: cell-based or functional assay
[4] = biological target: IL-18/TF/IL-15:IL-12/IL-15RαSu protein complex (18t15-12s) (human); test: sandwich ELISA; the concentration is that of the titrated 18t15-12s; anti-human tissue factor capture, D045-6 detection at a fixed concentration

Sequence of IL-18/TF/IL-15:IL-12/IL-15RαSu protein complex (18t15-12s) (human) (chain, as listed by the source, chain 1 of 2): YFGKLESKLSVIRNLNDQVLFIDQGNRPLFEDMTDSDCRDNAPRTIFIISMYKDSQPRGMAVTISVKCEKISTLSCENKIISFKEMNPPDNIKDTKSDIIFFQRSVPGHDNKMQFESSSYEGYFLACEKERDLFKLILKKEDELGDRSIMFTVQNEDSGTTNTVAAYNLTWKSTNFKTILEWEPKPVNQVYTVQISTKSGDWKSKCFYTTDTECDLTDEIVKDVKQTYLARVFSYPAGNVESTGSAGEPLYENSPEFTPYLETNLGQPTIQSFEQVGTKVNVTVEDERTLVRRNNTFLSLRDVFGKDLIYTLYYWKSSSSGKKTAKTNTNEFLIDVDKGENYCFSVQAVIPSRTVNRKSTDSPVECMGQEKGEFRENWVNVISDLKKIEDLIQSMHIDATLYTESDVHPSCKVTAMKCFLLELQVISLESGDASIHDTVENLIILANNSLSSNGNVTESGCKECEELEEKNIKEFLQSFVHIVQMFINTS
Sequence of IL-18/TF/IL-15:IL-12/IL-15RαSu protein complex (18t15-12s) (human) (chain, as listed by the source, chain 2 of 2): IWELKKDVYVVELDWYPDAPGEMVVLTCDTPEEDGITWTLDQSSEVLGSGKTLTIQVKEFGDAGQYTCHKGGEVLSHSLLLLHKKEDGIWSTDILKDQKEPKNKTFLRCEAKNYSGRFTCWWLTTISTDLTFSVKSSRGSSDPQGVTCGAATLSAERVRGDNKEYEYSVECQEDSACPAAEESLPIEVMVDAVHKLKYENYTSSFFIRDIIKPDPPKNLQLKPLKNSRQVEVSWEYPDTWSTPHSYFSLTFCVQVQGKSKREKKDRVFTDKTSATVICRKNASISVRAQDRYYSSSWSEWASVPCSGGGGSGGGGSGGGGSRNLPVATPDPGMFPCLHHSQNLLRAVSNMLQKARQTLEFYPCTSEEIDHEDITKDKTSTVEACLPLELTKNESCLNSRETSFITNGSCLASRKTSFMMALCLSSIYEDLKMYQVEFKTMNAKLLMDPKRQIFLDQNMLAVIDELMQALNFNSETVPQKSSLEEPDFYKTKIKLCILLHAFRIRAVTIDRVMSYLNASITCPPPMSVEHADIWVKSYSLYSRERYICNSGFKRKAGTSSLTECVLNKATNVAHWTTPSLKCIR
Sequence of UniProt P01137 (P01137 279-390 limits assumed): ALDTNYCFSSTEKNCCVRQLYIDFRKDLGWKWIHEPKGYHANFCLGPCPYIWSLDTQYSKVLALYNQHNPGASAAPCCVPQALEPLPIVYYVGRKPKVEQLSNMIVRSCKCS

Row | EC50, CTLL-2 cell proliferation (WST1) [2] [nM] | EC50, 32Dβ cell proliferation (WST1) [3] [nM] | Substance | also measured
1 |  |  | biotinylated anti-human IL-15 detection antibody (BAM 247) | EC50 (read off the curve) [1]: 0.01 µg/mL
2 | 0.253 | 0.0655 | recombinant IL2 (Proleukin) (from UniProt P60568 22-153) (ligand) | 
3 | 0.548 | 0.14 | recombinant IL-2 (from UniProt P60568 21-153) (ligand) | 
4 |  |  | TGFR-Fc (R&D Systems) (Fc fusion) | IC50, inhibition of TGFβ1 activity in HEK-Blue TGFβ reporter cells (QUANTI-Blue OD) (TGFβ1 (R&D systems)): 0.461 nM
5 |  |  | biotinylated anti-human IL-18 detection antibody (D045-6) | EC50 (read off the curve) [4]: 0.03 µg/mL
6 |  | 0.0106 | recombinant IL-15 (from UniProt P40933 49-162) (ligand) | 
